Results published in patent US20240132622A1 (Bristol-Myers Squibb, published 2024).

What was measured:
[1] = biological target: extracellular matrix (ECM) proteins; experiment: ECM plate ELISA (Matrigel), 1 uM antibody, A450 over wells without sample
recombinant human PAD4 [2] = biological target: T1, recombinant human PAD4 (human, UniProt Q9UM07 1-663); experiment: SPR 37 C, captured antibody, PAD4 analyte, 2 mM EDTA
T1 construct: also called rhPAD4; hPAD4
Description: (§1) For SPR measurements, either an anti-human capture surface or Protein A surface (Cytiva catalog #29127555) was used. Anti-human capture surface was prepared by immobilizing anti-human capture antibody (Cytiva catalog #29234600) onto flow cells of a CM5 or CM4 biosensor following the manufacturer's amine coupling protocol (Cytiva catalog #BR-1006-33). SPR experiments were conducted at 37° C. using HBS-P (150 mM NaCl, 10 mM HEPES, pH 7.6, 0.05% Tween-20) (TEKNOVA catalog #H8032) with additional 150 mM NaCl and 1 mM or 2 mM CaCl₂) (see Table 2) or 2 mM EDTA (see Table 3) as running buffer. Antibodies were diluted to 1.5 μg/mL in the running buffer, and were captured across active biosensor flow cells at 10 μL/min for 15 to 30 seconds. […] The association and dissociation of the antibodies with PAD4 were measured. One 30 second injection followed by one 15 second injection of 10 mM glycine pH 1.5 was used to regenerate the Protein A capture surface between assay cycles. For anti-human capture surface, two 30 second injections of 3 M MgCl₂ was used for regeneration. SPR measurements for mAb20 and mAb 13 SPR were done in the presence of 2 mM CaCl₂). The remaining antibodies were tested in the presence of 1 mM CaCl₂).
(§2) Rate constants kₒₙ and koff were derived from reference flow cell- and 0 nM blank-subtracted sensorgrams, and were fit to a 1:1 binding model in Biacore® Insight Evaluation software version 3.0.12.15655. Deviations from 1:1 binding model were observed, which may be caused by increased dimerization of PAD4 at higher concentrations. The equilibrium dissociation constant, KD, was calculated as the ratio of rate constants koff/kₒₙ for each PAD4 antibody. For those antibodies that were tested in multiple SPR experiments, the average value and standard deviation from two or three separate experiments are listed in Tables 2 and 3.

recombinant human PAD4 [3] = biological target: T1, recombinant human PAD4; experiment: SPR 37 C, captured antibody, PAD4 analyte, 1 mM CaCl2
Description: Their binding to human PAD4 was measured by Surface Plasmon Resonance (SPR). SPR measurements were performed with a Biacore® 8K, 8K+, or T200 instrument (Cytiva). The association rate constants, kₒₙ, dissociation rate constants, koff, and equilibrium dissociation constants, KD, of the antibodies with PAD4 were determined from these SPR measurements.
as §1
as §2, with “antibody.” for “antibody. For those antibodies that were tested in multiple SPR experiments, the average value and standard deviation from two or three separate experiments are listed in Tables 2 and 3.”

recombinant human PAD4 [4] = biological target: T1, recombinant human PAD4; experiment: cell-based or functional assay
recombinant human PAD4 [5] = biological target: T1, recombinant human PAD4; experiment: cell-based or functional assay; remark: listed apart in the source
recombinant human PAD4 [6] = biological target: T1, recombinant human PAD4; experiment: cell-based or functional assay; remark: listed apart in the source

T1 sequence (Q9UM07 whole entry): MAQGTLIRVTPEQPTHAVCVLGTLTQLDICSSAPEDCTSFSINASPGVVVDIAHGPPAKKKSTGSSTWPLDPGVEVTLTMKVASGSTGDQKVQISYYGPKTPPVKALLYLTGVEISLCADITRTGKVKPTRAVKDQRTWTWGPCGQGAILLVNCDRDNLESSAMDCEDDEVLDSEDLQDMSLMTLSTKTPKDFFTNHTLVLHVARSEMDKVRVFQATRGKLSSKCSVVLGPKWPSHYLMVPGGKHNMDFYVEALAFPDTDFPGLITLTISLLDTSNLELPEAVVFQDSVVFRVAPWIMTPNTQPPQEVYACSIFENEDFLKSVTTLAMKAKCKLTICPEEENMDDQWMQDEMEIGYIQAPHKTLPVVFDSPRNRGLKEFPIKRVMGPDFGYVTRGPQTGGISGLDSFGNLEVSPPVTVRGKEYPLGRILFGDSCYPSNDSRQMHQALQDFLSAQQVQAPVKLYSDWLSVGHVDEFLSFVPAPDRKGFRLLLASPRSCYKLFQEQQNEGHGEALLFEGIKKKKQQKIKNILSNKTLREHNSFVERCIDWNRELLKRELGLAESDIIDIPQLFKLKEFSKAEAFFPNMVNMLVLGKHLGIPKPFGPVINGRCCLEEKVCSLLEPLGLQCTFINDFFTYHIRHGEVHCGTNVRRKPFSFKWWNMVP

| Binder | ECM Score (1 µM) [1] | Kd (recombinant human PAD4 [2]) | koff (recombinant human PAD4 [2]) | kon (recombinant human PAD4 [2]) | Kd (recombinant human PAD4 [3]) | koff (recombinant human PAD4 [3]) | kon (recombinant human PAD4 [3]) | IC50 (average), PAD4 citrullination of peptide …, RapidFire MS (recombinant human PAD4 [4]) | further results |
| --- | --- | --- | --- | --- | --- | --- | --- | --- | --- |
| hz13-5 (antibody, IgG1, V domains shown, also called clone 13-based hz13-5 antibody; parent hz13-5) VH: EVLLVQSGAEVKKPGASVKLSCTSSDFNIKDHFIHWVRQAPGKGLEWMGRIDPEDDETKYAPKFQDRVTMTADTSTDTAYMELSSLRSEDTAVFYCAGYGNYEGAMDYWGQGTLVTVSS VL: DIQMTQSPSSLSASVGDRVTITCRASENVNNYGIGFMNWFQQKPGKAPKLLIYAASRRGSGVPSRFSGSGSGTDFTLTISSLQPEDFATYFCQQSKEVPYTFGQGTKVEIK | 1 | 0.1 nM | 0.00021 s⁻¹ | 2.1e+06 M⁻¹ s⁻¹ | 0.1 nM | 0.00012 s⁻¹ | 1.6e+06 M⁻¹ s⁻¹ | 48.2 nM | IC50, citrulline ELISA on peptide …, 13.5 nM rhPAD4 (recombinant human PAD4 [5]): 0.7 nM; IC50, citrulline ELISA on peptide …, 108 nM rhPAD4 (recombinant human PAD4 [5]): 5.02 nM |
| hz13-5 D31E (antibody, V domains shown, IgG1.3f; also called clone 13-based hz13-5 D31E) VH: EVLLVQSGAEVKKPGASVKLSCTSSDFNIKEHFIHWVRQAPGKGLEWMGRIDPEDDETKYAPKFQDRVTMTADTSTDTAYMELSSLRSEDTAVFYCAGYGNYEGAMDYWGQGTLVTVSS VL: DIQMTQSPSSLSASVGDRVTITCRASENVNNYGIGFMNWFQQKPGKAPKLLIYAASRRGSGVPSRFSGSGSGTDFTLTISSLQPEDFATYFCQQSKEVPYTFGQGTKVEIKR | – | 0.306 nM | 0.000358 s⁻¹ | 1.17e+06 M⁻¹ s⁻¹ | 0.147 nM | 0.000171 s⁻¹ | 1.32e+06 M⁻¹ s⁻¹ | – | IC50 run 1, citrulline ELISA on peptide …, 13.5 nM rhPAD4 (recombinant human PAD4 [6]): 0.34 nM; IC50 run 1, citrulline ELISA on peptide …, 27 nM rhPAD4 (recombinant human PAD4 [6]): 1.77 nM; IC50 run 1, citrulline ELISA on peptide …, 54 nM rhPAD4 (recombinant human PAD4 [6]): 3.13 nM; IC50 run 1, citrulline ELISA on peptide …, 108 nM rhPAD4 (recombinant human PAD4 [6]): 6.03 nM; IC50 run 2, citrulline ELISA on peptide …, 13.5 nM rhPAD4 (recombinant human PAD4 [6]): 0.73 nM; IC50 run 2, citrulline ELISA on peptide …, 27 nM rhPAD4 (recombinant human PAD4 [6]): 1.26 nM; IC50 run 2, citrulline ELISA on peptide …, 54 nM rhPAD4 (recombinant human PAD4 [6]): 3.14 nM; IC50 run 2, citrulline ELISA on peptide …, 108 nM rhPAD4 (recombinant human PAD4 [6]): 4.29 nM; IC50 run 3, citrulline ELISA on peptide …, 13.5 nM rhPAD4 (recombinant human PAD4 [6]): 0.37 nM; IC50 run 3, citrulline ELISA on peptide …, 27 nM rhPAD4 (recombinant human PAD4 [6]): 0.89 nM; IC50 run 3, citrulline ELISA on peptide …, 54 nM rhPAD4 (recombinant human PAD4 [6]): 2.68 nM; IC50 run 3, citrulline ELISA on peptide …, 108 nM rhPAD4 (recombinant human PAD4 [6]): 4.65 nM; mean IC50, PAD4 driven H3 citrullination (ELISA), 13.5 nM PAD4, with 100 ug/ml purified IgG of NHV sera (n=6) (recombinant human PAD4 [5]): 9 nM; mean IC50, PAD4 driven H3 citrullination (ELISA), 13.5 nM PAD4, with 100 ug/ml purified IgG of RA sera (n=21) (recombinant human PAD4 [5]): 8.2 nM |
| hz13-8 (antibody, V domains shown, light constant region not tied to this antibody) VH: EVLLVQSGAEVKKPGASVKLSCTSSDFNIKDHFIHWVRQAPGKGLEWIGRIDPEDDETKYAPKFQDRVTITADTSTDTAYLELSSLRSEDTAVFYCAGYGNYEGAMDYWGQGTLVTVSS VL: DIQMTQSPSSLSASVGDRVTITCRASENVNNYGIGFMNWFQQKPGKAPKLLIYAASRRGSGVPSRFSGSGSGTDFTLTISSLQPEDFATYFCQQSKEVPYTFGQGTKVEIK | 2 | 0.1 nM | 0.00016 s⁻¹ | 1.9e+06 M⁻¹ s⁻¹ | 0.1 nM | 0.00014 s⁻¹ | 1.7e+06 M⁻¹ s⁻¹ | 62.8 nM | – |
| hz13-4 (antibody, V domains shown, light constant region not tied to this antibody) VH: EVLLVQSGAEVKKPGASVKLSCTSSDFNIKDHFIHWVRQAPGKGLEWMGRIDPEDDETKYAPKFQDRVTMTADTSTDTAYMELSSLRSEDTAVFYCAGYGNYEGAMDYWGQGTLVTVSS VL: DIQMTQSPSSLSASVGDRVTITCRASENVNNYGIGFMNWYQQKPGKAPKLLIYAASRRGSGVPSRFSGSGSGTDFTLTISSLQPEDFATYYCQQSKEVPYTFGQGTKVEIK | 1 | 0.2 nM | 0.00032 s⁻¹ | 1.4e+06 M⁻¹ s⁻¹ | 0.1 nM | 0.00013 s⁻¹ | 930000 M⁻¹ s⁻¹ | 115 nM | – |
| hz13-7 (antibody, V domains shown, light constant region not tied to this antibody) VH: EVLLVQSGAEVKKPGASVKLSCTSSDFNIKDHFIHWVRQAPGKGLEWIGRIDPEDDETKYAPKFQDRVTITADTSTDTAYLELSSLRSEDTAVFYCAGYGNYEGAMDYWGQGTLVTVSS VL: DIQMTQSPSSLSASVGDRVTITCRASENVNNYGIGFMNWYQQKPGKAPKLLIYAASRRGSGVPSRFSGSGSGTDFTLTISSLQPEDFATYYCQQSKEVPYTFGQGTKVEIK | 1 | 0.1 nM | 0.00025 s⁻¹ | 2e+06 M⁻¹ s⁻¹ | 0.1 nM | 0.00015 s⁻¹ | 1.2e+06 M⁻¹ s⁻¹ | 170 nM | – |
| hz13-6 (antibody, V domains shown, light constant region not tied to this antibody) VH: EVLLVQSGAEVKKPGASVKLSCTSSDFNIKDHFIHWVRQAPGKGLEWMGRIDPEDDETKYAPKFQDRVTMTADTSTDTAYMELSSLRSEDTAVFYCAGYGNYEGAMDYWGQGTLVTVSS VL: DIVMTQSPSSLSASVGDRVTLTCRASENVNNYGIGFMNWFQQKPGKAPKLLIYAASRRGSGVPSRFSGSGSGTDFTLTISSMQPEDFATYFCQQSKEVPYTFGQGTKLEIK | 1 | 0.1 nM | 0.00023 s⁻¹ | 1.7e+06 M⁻¹ s⁻¹ | 0.1 nM | 0.00012 s⁻¹ | 1.6e+06 M⁻¹ s⁻¹ | 39.1 nM | – |
| hz13-3 (antibody, V domains shown, light constant region not tied to this antibody) VH: EVQLVQSGAEVKKPGASVKVSCTSSDFNIKDHFIHWVRQAPGKGLEWMGRIDPEDDETKYAPKFQDRVTMTADTSTDTAYMELSSLRSEDTAVYYCAGYGNYEGAMDYWGQGTLVTVSS VL: DIVMTQSPSSLSASVGDRVTLTCRASENVNNYGIGFMNWFQQKPGKAPKLLIYAASRRGSGVPSRFSGSGSGTDFTLTISSMQPEDFATYFCQQSKEVPYTFGQGTKLEIK | 1 | 0.1 nM | 0.00021 s⁻¹ | 1.9e+06 M⁻¹ s⁻¹ | 0.1 nM | 0.00013 s⁻¹ | 1.5e+06 M⁻¹ s⁻¹ | 23.3 nM | – |
| hz13-2 (antibody, V domains shown, light constant region not tied to this antibody) VH: EVQLVQSGAEVKKPGASVKVSCTSSDFNIKDHFIHWVRQAPGKGLEWMGRIDPEDDETKYAPKFQDRVTMTADTSTDTAYMELSSLRSEDTAVYYCAGYGNYEGAMDYWGQGTLVTVSS VL: DIQMTQSPSSLSASVGDRVTITCRASENVNNYGIGFMNWFQQKPGKAPKLLIYAASRRGSGVPSRFSGSGSGTDFTLTISSLQPEDFATYFCQQSKEVPYTFGQGTKVEIK | 1 | 0.1 nM | 0.00025 s⁻¹ | 2e+06 M⁻¹ s⁻¹ | 0.1 nM | 0.00012 s⁻¹ | 1.7e+06 M⁻¹ s⁻¹ | 96.4 nM | – |
| hz13-9 (antibody, V domains shown, light constant region not tied to this antibody) VH: EVLLVQSGAEVKKPGASVKLSCTSSDFNIKDHFIHWVRQAPGKGLEWIGRIDPEDDETKYAPKFQDRVTITADTSTDTAYLELSSLRSEDTAVFYCAGYGNYEGAMDYWGQGTLVTVSS VL: DIVMTQSPSSLSASVGDRVTLTCRASENVNNYGIGFMNWFQQKPGKAPKLLIYAASRRGSGVPSRFSGSGSGTDFTLTISSMQPEDFATYFCQQSKEVPYTFGQGTKLEIK | 2 | 0.1 nM | 0.00019 s⁻¹ | 2e+06 M⁻¹ s⁻¹ | 0.1 nM | 0.00016 s⁻¹ | 2e+06 M⁻¹ s⁻¹ | 76 nM | – |
